Data from US20190352408A1 (US Dept. of Health and Human Services, published 2019).

T1: cell-surface FLT3 (UniProt P36888 27-993, limits assumed)
T1 construct: whole, on cells; also called FLT3 on FLT3-positive RS4; 11 cells
T1 sequence (looked up): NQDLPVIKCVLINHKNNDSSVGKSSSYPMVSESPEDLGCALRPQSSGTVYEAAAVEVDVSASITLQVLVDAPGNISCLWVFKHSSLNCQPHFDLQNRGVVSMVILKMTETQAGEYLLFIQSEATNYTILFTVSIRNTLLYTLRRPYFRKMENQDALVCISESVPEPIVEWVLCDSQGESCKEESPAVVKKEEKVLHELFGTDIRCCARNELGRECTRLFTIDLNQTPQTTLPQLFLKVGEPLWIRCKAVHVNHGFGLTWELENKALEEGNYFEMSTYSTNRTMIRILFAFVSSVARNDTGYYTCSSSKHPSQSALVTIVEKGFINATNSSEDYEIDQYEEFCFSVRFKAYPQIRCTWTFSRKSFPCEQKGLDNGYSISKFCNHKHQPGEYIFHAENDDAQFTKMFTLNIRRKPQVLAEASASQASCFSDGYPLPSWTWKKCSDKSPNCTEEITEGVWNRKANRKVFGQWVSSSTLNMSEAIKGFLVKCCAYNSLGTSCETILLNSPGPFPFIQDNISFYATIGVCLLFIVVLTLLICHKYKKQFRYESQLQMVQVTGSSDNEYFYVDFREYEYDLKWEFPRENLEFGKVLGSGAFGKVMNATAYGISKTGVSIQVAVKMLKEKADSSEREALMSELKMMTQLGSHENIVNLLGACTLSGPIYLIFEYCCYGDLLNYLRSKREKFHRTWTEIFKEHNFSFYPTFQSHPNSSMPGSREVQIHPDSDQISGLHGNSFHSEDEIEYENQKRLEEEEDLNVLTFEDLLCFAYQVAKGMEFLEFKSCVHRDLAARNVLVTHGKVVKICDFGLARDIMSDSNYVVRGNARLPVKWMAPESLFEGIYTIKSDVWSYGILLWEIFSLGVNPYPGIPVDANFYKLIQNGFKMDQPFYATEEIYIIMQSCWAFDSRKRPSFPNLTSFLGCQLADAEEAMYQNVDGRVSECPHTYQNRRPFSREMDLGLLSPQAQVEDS

T2: recombinant soluble FLT3 (human, UniProt P36888 27-541, limits assumed)
T2 construct: For the ELISA it says only 'recombinant soluble FLT3'; also called soluble recombinant FLT3; Fms-like tyrosine kinase 3
T2 sequence (looked up): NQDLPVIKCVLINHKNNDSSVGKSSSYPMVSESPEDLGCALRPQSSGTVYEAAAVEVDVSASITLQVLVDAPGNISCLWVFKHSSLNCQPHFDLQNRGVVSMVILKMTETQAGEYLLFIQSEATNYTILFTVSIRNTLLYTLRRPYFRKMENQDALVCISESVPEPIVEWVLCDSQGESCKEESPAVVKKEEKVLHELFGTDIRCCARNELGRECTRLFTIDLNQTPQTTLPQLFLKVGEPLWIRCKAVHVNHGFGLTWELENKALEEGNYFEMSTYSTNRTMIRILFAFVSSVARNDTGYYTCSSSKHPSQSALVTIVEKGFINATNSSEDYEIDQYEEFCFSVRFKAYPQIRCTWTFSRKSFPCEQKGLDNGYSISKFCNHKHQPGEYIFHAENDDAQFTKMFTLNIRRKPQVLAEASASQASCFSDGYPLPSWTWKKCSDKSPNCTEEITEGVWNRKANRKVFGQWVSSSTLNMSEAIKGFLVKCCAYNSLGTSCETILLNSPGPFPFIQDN


Assays:
[1] = biological target: T1, cell-surface FLT3; experiment: flow cytometry on RS4;11 cells, anti-His-PE detection
[2] = biological target: T2, recombinant soluble FLT3; experiment: ELISA on recombinant soluble FLT3 (FIG. 1B)
[3] = biological target: T2, recombinant soluble FLT3; experiment: ELISA on recombinant soluble FLT3 (FIG. 1A)
[4] = biological target: T2, recombinant soluble FLT3; experiment: ELISA on recombinant soluble FLT3 (FIG. 1C)

Binder	binding result [1]	binding result [2]	binding result [3]	binding result [4]
m1008 (scFv, Fully human; isolated from a phage display scFv library; Detected with anti-His-PE) scFv: QVQLQESGPGLVKPSQTLSLTCTVSGGSISSSGYYWSWVRQSPGKGLEWIGEIYQSGNTNYNPSLKSRVTISVDKPKNQLSLKLGSVTAADTAVYYCARGGSYYDYWGQGTLVTVSSGGGGSGGGGSGGGGSQSVVTQPPSVSAAPGQKVTISCSGSNSNIGNNYVSWYQQLPGTAPKVLIYDNNVRPSGIPDRFSGSKSGTSATLGITGLQTGDEADYYCETWDSSLNVGMFGGGTQLIVL	binds	binds		
m1006 (antibody, V domains shown, Fully human; isolated from a phage display Fab library) VH: EVQLVESGGGLVQPGGSLRLSCAASGFTFSSYGMHWVRQAPGKGLEWVAVISYDGSNKYYADSVKGRFTISRDNSKNTLYLQMNSLRAEDTAVYYCANLAPWAAYWGQGTLVTVSS VL: not shown	binds		binds	
m1007 (antibody, V domains shown, Fully human; isolated from a phage display Fab library) VH: EVQLVESGGGVVQPGGSLRLSCAASGFTFSSYGMHWVRQAPGKGLEWVAVISYDGSNKYYADSVKGRFTISRDNSKNTLYLQMNSLRAEDTAVYYCANLAPWAAYWGQGTLVTVSS VL: not shown	binds		binds	
m1009 (scFv, Fully human; isolated from a phage display scFv library; Detected with anti-His-PE) scFv: EVQLVQSGGGLVQPGGSLRLSCAASGFTFSSYAMSWVRQAPGKGLEWVSGISWNSGSIGYADSVKGRFTISRDNAKNSLYLQMNSLRAEDTALYYCAKVGGGGAFDIWGQGTMVTVSSGGGGSGGGGSGGGGSQSVLTQPPSVSAAPGQKVTISCSGSSSSIGDNYVSWYQQVPGTAPKLLIYGNNKRPSGIPDRLSGSKSGTSATLGITGLQTGDEADYYCGTWDNSLGGVFGGGTKLTVL	binds	binds		
m1012 (VHH, Human VH single-domain antibody (not camelid) from a phage display VH domain library; Detected with anti-His-PE; also called single-domain antibody m1012) VHH: EVQLVESGGGLVQPGGSLRLSCAASRFYFSGYEMSWVRQAPGKGLEWVSAISGSGGSTYYADSVKGRFTISRDNSKNTLYLQMNSLRAEDTAVYYCARRVVGAKLYFQHWGQGTLVTVSS	binds			binds
